Source: PMC9482095
Like-named read-outs stand apart in the source and are kept apart here.

Tests used:
FOXO1 FKH L183P [1] = biological target: T1, FOXO1 FKH L183P (UniProt Q12778 151-265, L183P); experiment: EMSA
FOXO1 FKH L183P [2] = biological target: T1, FOXO1 FKH L183P; experiment: EMSA; remark: listed apart in the source

T1 sequence (Q12778 151-265 L183P): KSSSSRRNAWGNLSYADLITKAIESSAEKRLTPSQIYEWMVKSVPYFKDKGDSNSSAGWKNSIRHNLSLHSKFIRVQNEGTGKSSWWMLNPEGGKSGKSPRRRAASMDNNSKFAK

B1: dsIRE (dsDNA)
DNA 1: TAAGCTAGTGGTTTGTTTTGCTTGCTAGCAAT
DNA 2: ATTGCTAGCAAGCAAAACAAACCACTAGCTTA
- Kd (FOXO1 FKH L183P [1]): 460 ± 100 nM

B2: dsDBE2 (dsDNA)
DNA 1: TAAGCTAGTCTTGTTTACATTTTGCTAGCAAT
DNA 2: ATTGCTAGCAAAATGTAAACAAGACTAGCTTA
- Kd (FOXO1 FKH L183P [2]): 230 nM
